Data on 1 molecule can be found in publication PMC7416497.

One may read the Kd as the free concentration of one partner at which half of the binding sites on the other are occupied at equilibrium, for simple one-to-one binding. Low values mean a tighter complex, high ones a looser complex.

The target of the data set is T1, ETS1 ΔN279 (UniProt P14921 279-441).
T1 sequence: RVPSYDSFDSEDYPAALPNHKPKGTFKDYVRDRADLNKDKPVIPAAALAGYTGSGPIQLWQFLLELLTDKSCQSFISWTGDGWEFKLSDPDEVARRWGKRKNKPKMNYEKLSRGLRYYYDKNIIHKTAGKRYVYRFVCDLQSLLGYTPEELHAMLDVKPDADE
Put plainly: EMSA. (In EMSA bound probe runs differently from free probe, usually more slowly.)

B1: SC1 (dsDNA)
DNA 1: TCGACGGCCAAGCCGGAAGTGAGTGCC
DNA 2: TCGAGGCACTCACTTCCGGCTTGGCCG
Turning to B1, the affinity, expressed as Kd, was 400 pM.
